Test results published in article PMC4547098 (eLife, 2015).

Tests used:
[1] = biological target: AVR-PikE with non-cleavable C-terminal 6xHis tag (pOPINE) (Magnaporthe oryzae, UniProt C4B8B8 22-113); experiment: SPR; conditions: both partners purified
[2] = biological target: AVR-PikD with non-cleavable C-terminal 6xHis tag (pOPINE) (Magnaporthe oryzae, UniProt C4B8B8 22-113); experiment: SPR; Biacore T200, 25°C, single-cycle kinetics; […]; 50 mM HEPES pH 7.5, 150 mM NaCl, 0.1% Tween 20; conditions: both partners purified

B1: Pikp-HMA domain (HMA integrated domain of the rice NLR Pikp-1) (domain or fragment)
chain: GLKQKIVIKVAMEGNNCRSKAMALVASTGGVDSVALVGDLRDKIEVVGYGIDPIKLISALRKKVGDAELLQVS
notes: also called Pikp1-HMA; Pikp-1 HMA; not shown: 6xHis+SUMO, N-terminal, cleaved
With B1 the Kd [1] was 367 ± 41 nM and the Kd [2] was 29 ± 3.5 nM.
